Results on two molecules are retold here after patent US7943337B2, “Method for screening a protease” (Asahi Kasei Pharma Corporation, priority 2003, dated 2011).

Assay type in all cases: biochemical
Test [1] is described as follows: Screening of protease for hemoglobin A1c determination (pH 7.5). To be noted: pH 7.5, 37° C. 60 minutes; 550 nm, reference 595 nm; FOD923 developing solution. As for the experimental part: (§1) A screening method is shown in which a protease that cleaves a glycated peptide from N-terminal-glycated pentapeptide of a hemoglobin β-chain without substantially cleaving a glycated amino acid or glycated peptide from N-terminal-glycated pentapeptide of a hemoglobin α-chain. Each 10 μl of a sample for screening was placed in 3 wells of a 96-well plate, respectively. Then, the first well was supplemented with 50 μl of an α-solution, the second well was supplemented with 50 μl of a β-solution, and the third well was supplemented with 50 μl of a control solution. After the plate was incubated at 37° C. for 60 minutes, 50 μl of distilled water and 50 μl of a developing solution were added, and the whole was left at room temperature for 30 minutes. Then, the absorbance at a measuring wavelength of 550 nm and a reference wavelength of 595 nm were determined using a Microplate Reader (model 550, manufactured by Bio-Rad), to select a sample having a difference in the absorbance between the β-solution-supplemented well and the control solution-supplemented well larger than a difference in the absorbance between the α-solution-supplemented well and the control solution-supplemented well. Thus the protease of object was screened. The samples to be used include: carboxypeptidase B (manufactured by Sigma-Aldrich Corp.); carboxypeptidase W (manufactured by Wako Pure Chemical Industries, Ltd.); carboxypeptidase Y (manufactured by Oriental Yeast Co., Ltd.); protease (type XXVII nagase: manufactured by Sigma-Aldrich Corp.); protease (type VIII Subtilisin Carlsberg: manufactured by Sigma-Aldrich Corp.); protease (type XXIV Bacterial: manufactured by Sigma-Aldrich Corp.); Proteinase K (manufactured by Wako Pure Chemical Industries, Ltd.); neutral proteinase (manufactured by Toyobo Co., Ltd.); carboxypeptidase A (manufactured by Wako Pure Chemical Industries, Ltd.); thermolysin (manufactured by Wako Pure Chemical Industries, Ltd.); and distilled water. To confirm a degree of color development caused by a developing solution, 10 μl of 1 mM FVH (manufactured by Peptide Institute Inc.) and 1 mM FVL (manufactured by Peptide Institute Inc.) were placed in a well severally, followed by adding 50 μl of the control solution. The whole was incubated at 37° C. for 60 minutes. Then, 50 μl of distilled water and 50 μl of the developing solution were added and the whole was left at room temperature for 30 minutes, followed by the determination in a similar manner as described above.
0.2 mM α-Glycated pentapeptide (manufactured by Peptide Institute Inc.)
(§2) 0.09% 4-Aminoantipyrine (manufactured by Wako Pure Chemical Industries, Ltd.)
(§3) 0.06% TODB (manufactured by Dojindo Laboratories)
(§4) 15 U/ml Peroxidase (manufactured by Sigma-Aldrich Corp.)
(§5) Various bacteria were cultured with shaking in Difco Lactobacilli MRS Broth (manufactured by Becton, Dickinson and Company), a MM medium (2.5% mannose, 2.5% beer yeast extract, pH7.0), and a YPG medium (2% glucose, 1% polypeptone, 2% yeast extract, 0.1% potassium dihydrogen phosphate, 0.05% magnesium sulfate heptahydrate, pH 7.0) at a temperature of from 28 to 30° C. for 1 to 7 days. Then, cells were removed by centrifugation from the culture solutions to obtain culture supernatants. A sample was prepared by diluting the obtained culture supernatants 10-fold with a 10 mM potassium phosphate buffer (pH7.5), and the determination was performed in a similar manner as Example 1.

Test in test [2]: as above
To be noted: for β-Solution (absorbance, RAW DATA): pH 7.5, 37° C. 60 minutes, 550 nm, reference 595 nm, FOD923 developing solution. As for the experimental part:
as §1
0.2 mM β-Glycated pentapeptide (manufactured by Peptide Institute Inc.)
as §2, §3, §4, §5

A short description of test [3]: Screening of protease (pH 7.5), control solution without substrate. Particulars: pH 7.5, no substrate; 550 nm, reference 595 nm. As for the experimental part:
as §1, §2, §3, §4, §5

B1: carboxypeptidase A: carboxypeptidase A (manufactured by Wako Pure Chemical Industries, Ltd.) (protein, UniProt P00730 111-419, looked up)
Carboxypeptidase A1: ARSTNTFNYATYHTLDEIYDFMDLLVAEHPQLVSKLQIGRSYEGRPIYVLKFSTGGSNRPAIWIDLGIHSREWITQATGVWFAKKFTEDYGQDPSFTAILDSMDIFLEIVTNPDGFAFTHSQNRLWRKTRSVTSSSLCVGVDANRNWDAGFGKAGASSSPCSETYHGKYANSEVEVKSIVDFVKDHGNFKAFLSIHSYSQLLLYPYGYTTQSIPDKTELNQVAKSAVEALKSLYGTSYKYGSIITTIYQASGGSIDWSYNQGIKYSFTFELRDTGRYGFLLPASQIIPTAQETWLGVLTIMEHTLNNLY
In the case of B1, in test [1], the “α-Solution (absorbance, RAW DATA)” value was 0.022. For the same molecule, the “β-Solution (absorbance, RAW DATA)” value in test [2] is recorded as 0.145. In addition, the “control solution (absorbance, RAW DATA)” value in test [3] turned out to be 0.018.

B2: thermolysin: thermolysin (manufactured by Wako Pure Chemical Industries, Ltd.) (protein, UniProt P00800 233-548, looked up)
Thermolysin: ITGTSTVGVGRGVLGDQKNINTTYSTYYYLQDNTRGNGIFTYDAKYRTTLPGSLWADADNQFFASYDAPAVDAHYYAGVTYDYYKNVHNRLSYDGNNAAIRSSVHYSQGYNNAFWNGSQMVYGDGDGQTFIPLSGGIDVVAHELTHAVTDYTAGLIYQNESGAINEAISDIFGTLVEFYANKNPDWEIGEDVYTPGISGDSLRSMSDPAKYGDPDHYSKRYTGTQDNGGVHINSGIINKAAYLISQGGTHYGVSVVGIGRDKLGKIFYRALTQYLTPTSNFSQLRAAAVQSATDLYGSTSQEVASVKQAFDAVGVK
For B2, the “α-Solution (absorbance, RAW DATA)” value in test [1] came to 0.053. The “specificity for β-chain over α-chain N-terminal glycated pentapeptide” value in test [2] (pH 7.5) is on record as “cleave a glycated peptide from an N-terminal glycated pentapeptide of a hemoglobin β-chain without substantially cleaving”. Also, the “β-Solution (absorbance, RAW DATA)” value in test [2] was determined as 0.249. The “control solution (absorbance, RAW DATA)” value in test [3] came out at 0.055.
